In publication PMC4899734, “Selective inhibition of apicoplast tryptophanyl-tRNA synthetase causes delayed death in Plasmodium falciparum” (Scientific Reports, 2016):

T1: apicoplast tryptophanyl-tRNA synthetase (TrpRS^api, PF3D7_1251700) (Plasmodium falciparum, UniProt A0A144A140)
T1 sequence (A0A144A140 61-559): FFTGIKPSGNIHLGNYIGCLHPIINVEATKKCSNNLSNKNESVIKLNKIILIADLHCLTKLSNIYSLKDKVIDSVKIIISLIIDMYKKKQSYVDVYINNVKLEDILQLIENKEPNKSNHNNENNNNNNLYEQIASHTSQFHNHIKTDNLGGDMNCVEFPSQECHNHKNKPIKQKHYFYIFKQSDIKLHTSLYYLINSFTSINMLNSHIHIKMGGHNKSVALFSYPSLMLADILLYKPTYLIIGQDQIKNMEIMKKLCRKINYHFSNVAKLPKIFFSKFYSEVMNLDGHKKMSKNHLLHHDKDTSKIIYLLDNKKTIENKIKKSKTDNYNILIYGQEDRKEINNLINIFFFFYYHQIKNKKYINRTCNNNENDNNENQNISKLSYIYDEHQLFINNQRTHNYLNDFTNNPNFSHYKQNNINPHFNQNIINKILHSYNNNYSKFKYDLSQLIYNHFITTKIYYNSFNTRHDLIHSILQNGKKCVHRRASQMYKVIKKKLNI


Experiments:
[1] = target: T1, apicoplast tryptophanyl-tRNA synthetase (TrpRS^api, PF3D7_1251700); experiment: radiolabelled tryptophan tRNA aminoacylation assay with purified recombinant enzyme, […] indolmycin; format: biochemical
[2] = substrate: N[C@@H](Cc1c[nH]c2ccccc12)C(=O)O; experiment: steady-state aminoacylation kinetics with purified enzyme (apparent Km); format: biochemical, Plasmodium falciparum; conditions: ATP, Mg2+
[3] = substrate: Nc1ncnc2c1ncn2[C@@H]1O[C@H](COP(=O)(O)OP(=O)(O)OP(=O)(O)O)[C@@H](O)[C@H]1O; experiment: as above; format: biochemical, Plasmodium falciparum; conditions: Mg2+

Molecule	radiolabelled tryptophan tRNA aminoacylation assay with purified recombinant enz [1]	Km [2] [µM]	Vmax [2] [µmol/min]	Km [3] [µM]	Vmax [3] [µmol/min]
CNC1=NC(=O)[C@H]([C@H](C)c2c[nH]c3ccccc23)O1 [indolmycin]	at higher concentrations of indolmycin, tRNA^trp formation by TrpRS^api was reduced to background levels				
apicoplast tryptophanyl-tRNA synthetase (TrpRS^api, PF3D7_1251700) (Plasmodium falciparum 3D7) (protein) FFTGIKPSGNIHLGNYIGCLHPIINVEATKKCSNNLSNKNESVIKLNKIILIADLHCLTKLSNIYSLKDKVIDSVKIIISLIIDMYKKKQSYVDVYINNVKLEDILQLIENKEPNKSNHNNENNNNNNLYEQIASHTSQFHNHIKTDNLGGDMNCVEFPSQECHNHKNKPIKQKHYFYIFKQSDIKLHTSLYYLINSFTSINMLNSHIHIKMGGHNKSVALFSYPSLMLADILLYKPTYLIIGQDQIKNMEIMKKLCRKINYHFSNVAKLPKIFFSKFYSEVMNLDGHKKMSKNHLLHHDKDTSKIIYLLDNKKTIENKIKKSKTDNYNILIYGQEDRKEINNLINIFFFFYYHQIKNKKYINRTCNNNENDNNENQNISKLSYIYDEHQLFINNQRTHNYLNDFTNNPNFSHYKQNNINPHFNQNIINKILHSYNNNYSKFKYDLSQLIYNHFITTKIYYNSFNTRHDLIHSILQNGKKCVHRRASQMYKVIKKKLNI		5.3 ± 1.2	0.029		
cytosolic tryptophanyl-tRNA synthetase (TrpRS^cyt, PF3D7_1336900) (Plasmodium falciparum 3D7) (protein) KDVTPWDVNINNEEGINYNKLIKEFGCSKITENHIKRIEKLTNSKAHHFIRRGIFFSHRDLDFLLNYYEQHKCFYIYTGRGPSSLSMHLGHLIPFYFCKYLQEAFNVPLVIQLSDDEKYLFNQNYSLEYINTLTNENVKDIISVGLNPELTFIFKNTEYAGYLYPTVLSIHKKTTLNQSMNVFGFNHSDNIGKISYPSFQIAPCFSQCFPNFLGKNIPCLVPQGIDQDPYFRLSRDIAVKMALHKPVVVHSVFMPGLQGVNSKMSSTKKKKDDNGKSNSTFDHNNSVIFLTDTPEQIKNKINKYAFSGGGTTIQEHREKGGNLDKDISYQYLRYLLEDDNKLNEIGEKYKKGEMLSGEIKKILIDVLTELVLKHQEKKKSLTDEEISYFFDPNKPSLQKFKNM		15.6 ± 0.6	0.077	622 ± 0.3	0.292
